Positions count from the first letter of the chain named.
B1: KC18 (antibody, V domains shown)
VH: QVQLQQSGAELVRPGASVTLSCKASGDTFTDFEIHWVKQTPVHGLEWIGDIDPETGGTAYNQKFRGRAMLTADRSSSTAYMELRSLTSEDSAVYYCTRTYDGYPYAMDYWGQGTSVTVSS
VL: DIVMSQSPSSLAVSVGEKVTMSCKSSQSLLYSNNQKNYLAWYQQKPGQSPKLLIYWASTRESGVPDRFTGSGSGTDFTLTISSVKAEDLAVYYCQQYYSYRTFGGGTKLEIKR
B2: KC18_Hu46 (antibody, human IgG1, kappa, V domains shown)
VH: EVQLVQSGAEVKKPGATVKLSCKASGDTFTDFEIHWVQQAPGKGLEWIGDVDPETGGTAYAEKFQGRATLTADRSTDTAYLELSSLRSEDTAVYYCTRTYDGYPYAFDYWGQGTLVTVSS
VL: DIVMTQSPDSLAVSLGERVTINCKSSQSVLYSDNQKNYLAWYQQKPGQSPKLLIYFASTRESGVPDRFSGSGSGTDFTLTISSVQAEDVAVYYCQQYYSYRTFGGGTKLEIKR
B3: KC18_Hu18 (antibody, human IgG1, kappa, V domains shown)
VH: B2 VH with L81M
VL: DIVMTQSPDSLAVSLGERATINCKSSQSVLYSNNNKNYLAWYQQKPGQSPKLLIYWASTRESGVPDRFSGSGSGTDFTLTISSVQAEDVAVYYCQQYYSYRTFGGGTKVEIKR
B4: KC18_Hu44 (antibody, human IgG1, kappa, V domains shown)
VH: B2 VH
VL: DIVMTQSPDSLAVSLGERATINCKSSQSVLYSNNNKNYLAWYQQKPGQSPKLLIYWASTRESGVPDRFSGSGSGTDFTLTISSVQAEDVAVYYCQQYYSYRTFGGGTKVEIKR
B5: KE35 (antibody, V domains shown)
VH: EVQLQQSGPELVKPGASVKMSCKASGYTFTDYNMHWVKQSHGKSLEWIGYINPNNGGTRYNQKFKGKATLTVNKSSSTAYMELRSLTSEDSAVYYCARERDYDGAMDYWGQGTSVTVSS
VL: DIQMTQSPSSLSASLGGKVTITCKASQDINKFIAWYQHKPGKGPRLLIHYTSTLQPGIPSRFSGSGSGRDYSFSISNLEPEDIATYYCLQYDNLLWTFGGGTKLEIK
notes: Mouse hybridoma monoclonal antibody
B6: KE42 (antibody, V domains shown)
VH: B5 VH with E46Q, R59N, K63N, G66D, S77T, A105S, Y108F
VL: B5 VL with Y87F
notes: as for B5
B7: KE94 (antibody, V domains shown)
VH: QVQLQQSGAELVRPGASVTLSCKASGSTFTDFEIHWVKQTPVHGLEWIGAIDPETGGTAYNQKFKGKAILTAVKSSSTAYMGLRSLTSEDSAVYYCTRNYDGYSRTMDYWGQGTSVTVSS
VL: NIMMTQSPSSLAVSAGEKVTMSCKSSQSVLYSSNQKNYLAWYQQKPGQSPKLLIYWASTRESGVPDRFTGSGSGTDFSLSISSVQTEDLAVYYCHQYLSSYTFGGGTRLEMK
notes: as for B5
B8: KE58 (antibody, V domains shown)
VH: EVQLQQSGPDLVKPGASVKISCKASGYTVTDYYMNWVKQSHGKSLEWIGDINPNNGVTTYNQKFKDKATLTVDKSSSTAYMELRSLTSEDSAVYYCAREEDFDGFDYWGQGTTLTVSS
VL: DIVMTQSHKFMSTSVGDRVSITCKASQDVSTGVAWYQQKPGQSPQLLIYWASTRHTGVPDRFTGSGSGTDYILTIRSVQAEDLALYYCQQHYSTPLTFGAGTKLELK
notes: as for B5

Columns and labels:
[1] = biological target: T1, FGFR3 fused to β-galactosidase fragments (FGFR3-PK and FGFR3-EA) co-expressed in U2OS cells; test: cell-based or functional assay
WT PRCs [2] = biological target: T2, WT PRCs (mouse, UniProt Q61851); test: cell-based or functional assay
WT PRCs [3] = biological target: T2, WT PRCs; test: cell-based or functional assay; remark: listed apart in the source
WT PRCs [4] = biological target: T2, WT PRCs; test: cell-based or functional assay; remark: listed apart in the source
[5] = biological target: T3, human FGFR3 G380R isoform IIIc, full length, expressed on transfected cells (human, UniProt P22607 23-806); test: FACS, cells transfected with mutant FGFR3 (G380R)
T3 construct: also called mutant FGFR3; FGFR3^G380R-300.19
Protocol: (§1) After three washes, the cells were incubated with a fluorescent-conjugated secondary antibody (Invitrogen).

[6] = biological target: T4, wild-type human FGFR3 isoform IIIc, full length, expressed on transfected cells (human, UniProt P22607 23-806); test: FACS, cells transfected with wild-type FGFR3
T4 construct: also called wild-type FGFR3; FGFR3-300.19
Protocol: as §1

[7] = biological target: T1, FGFR3 fused to β-galactosidase …; test: cell-based or functional assay; remark: listed apart in the source
[8] = biological target: T1, FGFR3 fused to β-galactosidase …; test: cell-based or functional assay; remark: listed apart in the source

| Binder | binding result [5] | binding result [6] | other results |
| --- | --- | --- | --- |
| B1 | – | – | EC50, inhibition of FGF18-induced FGFR3 dimerization (RLU, beta-galactosidase complementation in U2OS cells); table column 'KC18 with FGF' [1]: 0.521 µg/mL |
| B2 | – | – | IC50, inhibition of FGF18-stimulated Erk phosphorylation (pErk/Erk %, HTRF), 'Hu46 on WT PRCs' (WT PRCs [2]): 0.55 µg/ml |
| B3 | – | – | IC50, inhibition of FGF18-stimulated Erk phosphorylation (pErk/Erk %, HTRF), 'Hu18 on WT PRCs' (WT PRCs [3]): 0.42 µg/ml |
| B4 | – | – | IC50, inhibition of FGF18-stimulated Erk phosphorylation (pErk/Erk ratio %, HTRF), 'Hu44 on WT PRCs' (WT PRCs [4]): 0.32 µg/ml |
| B5 | binds | binds | – |
| B6 | binds | binds | – |
| B7 | binds | binds | EC50, inhibition of FGF18-induced FGFR3 dimerization (RLU, beta-galactosidase complementation in U2OS cells); fitted curve 'KE94 with FGF18' [7]: 0.102 µg/mL |
| B8 | binds | binds | EC50, inhibition of FGF18-induced FGFR3 dimerization (RLU, beta-galactosidase complementation in U2OS cells); fitted curve 'KE58 with FGF18' [8]: 0.423 µg/mL |
